Measured values reported in article PMC11931385, “Structural and functional analysis of cancer-associated missense variants in the retinoblastoma protein pocket domain” (The Journal of Biological Chemistry, 2025).
No end group written: not given here. TMR = tetramethyl rhodamine dye

T1: Rb^P A490T (human, UniProt P06400 380-788, A490T)
T1 construct: also called variant 16
T1 sequence (looked up): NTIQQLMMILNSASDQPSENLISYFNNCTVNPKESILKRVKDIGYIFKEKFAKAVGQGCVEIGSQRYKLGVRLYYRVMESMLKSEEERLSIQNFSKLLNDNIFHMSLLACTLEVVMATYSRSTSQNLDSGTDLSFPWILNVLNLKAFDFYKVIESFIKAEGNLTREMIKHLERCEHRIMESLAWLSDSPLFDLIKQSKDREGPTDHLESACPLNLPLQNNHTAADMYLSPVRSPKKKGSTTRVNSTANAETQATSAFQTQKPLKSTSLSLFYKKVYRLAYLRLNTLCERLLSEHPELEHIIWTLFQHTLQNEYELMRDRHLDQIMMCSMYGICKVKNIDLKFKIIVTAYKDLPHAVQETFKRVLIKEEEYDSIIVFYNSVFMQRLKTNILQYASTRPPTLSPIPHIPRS

T2: Rb^P H585Y (human, UniProt P06400 380-788, H585Y)
T2 construct: also called variant 33
T2 sequence (looked up): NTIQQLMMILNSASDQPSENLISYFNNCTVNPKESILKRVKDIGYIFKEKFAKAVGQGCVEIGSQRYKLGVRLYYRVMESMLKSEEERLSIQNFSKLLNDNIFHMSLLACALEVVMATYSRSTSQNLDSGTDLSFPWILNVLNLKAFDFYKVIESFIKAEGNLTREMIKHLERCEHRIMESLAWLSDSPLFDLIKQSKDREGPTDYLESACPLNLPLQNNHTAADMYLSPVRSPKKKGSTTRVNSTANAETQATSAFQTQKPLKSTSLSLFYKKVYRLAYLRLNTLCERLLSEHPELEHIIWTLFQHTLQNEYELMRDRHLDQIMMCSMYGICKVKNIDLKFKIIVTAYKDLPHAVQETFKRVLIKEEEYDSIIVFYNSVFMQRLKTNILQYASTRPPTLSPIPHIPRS

T3: Rb^P V654L (human, UniProt P06400 380-788, V654L)
T3 construct: also called variant 47
T3 sequence (looked up): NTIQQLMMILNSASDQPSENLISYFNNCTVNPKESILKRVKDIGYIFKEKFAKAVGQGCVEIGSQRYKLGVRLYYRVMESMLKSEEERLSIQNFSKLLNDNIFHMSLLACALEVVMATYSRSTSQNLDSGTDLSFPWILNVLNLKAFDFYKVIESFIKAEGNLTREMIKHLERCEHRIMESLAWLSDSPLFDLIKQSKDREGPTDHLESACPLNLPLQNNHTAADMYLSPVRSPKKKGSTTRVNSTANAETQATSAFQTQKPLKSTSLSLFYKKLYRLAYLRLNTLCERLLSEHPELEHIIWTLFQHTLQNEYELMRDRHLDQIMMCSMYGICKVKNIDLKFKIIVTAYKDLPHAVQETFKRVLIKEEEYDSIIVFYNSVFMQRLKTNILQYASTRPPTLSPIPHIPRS

T4: Rb^P D604G (human, UniProt P06400 380-788, D604G)
T4 construct: also called variant 36
T4 sequence (looked up): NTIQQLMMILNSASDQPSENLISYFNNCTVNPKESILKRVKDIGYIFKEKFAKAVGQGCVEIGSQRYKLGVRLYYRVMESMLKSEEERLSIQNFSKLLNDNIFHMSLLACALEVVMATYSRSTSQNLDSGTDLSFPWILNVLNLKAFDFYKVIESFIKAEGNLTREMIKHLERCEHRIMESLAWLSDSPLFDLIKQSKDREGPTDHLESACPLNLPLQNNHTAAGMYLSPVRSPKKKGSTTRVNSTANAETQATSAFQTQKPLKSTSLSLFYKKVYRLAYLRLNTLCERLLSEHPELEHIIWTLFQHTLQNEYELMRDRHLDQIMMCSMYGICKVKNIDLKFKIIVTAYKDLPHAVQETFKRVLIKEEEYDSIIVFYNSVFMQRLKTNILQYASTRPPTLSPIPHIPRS

T5: Rb^P A488V (human, UniProt P06400 380-788, A488V)
T5 construct: also called variant 14
T5 sequence (looked up): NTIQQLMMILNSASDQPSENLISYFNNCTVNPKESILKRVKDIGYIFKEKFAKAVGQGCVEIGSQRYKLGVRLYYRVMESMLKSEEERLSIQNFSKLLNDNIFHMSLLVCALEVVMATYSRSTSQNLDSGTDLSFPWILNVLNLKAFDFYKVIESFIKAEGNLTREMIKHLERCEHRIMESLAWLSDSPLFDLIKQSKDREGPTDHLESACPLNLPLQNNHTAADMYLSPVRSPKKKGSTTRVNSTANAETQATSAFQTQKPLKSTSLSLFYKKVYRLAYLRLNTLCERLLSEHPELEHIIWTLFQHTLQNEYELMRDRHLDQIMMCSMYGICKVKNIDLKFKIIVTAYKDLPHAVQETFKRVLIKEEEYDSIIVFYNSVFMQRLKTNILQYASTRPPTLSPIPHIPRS


What was measured:
Test in all cases: fluorescence polarisation; 25 °C; unlabeled Rb^P titrated against 1.5 nM TMR-E2F1^TD or 7.5 nM TMR-E7^LxCxE; 25 mM Tris pH 8.0, 200 mM NaCl, 1 mM DTT, 0.1% Tween-20; 2 min incubation; quadratic fit; apparent Kd for the variants, Kd for WT
Details in all cases: both partners purified
Rb^P A490T = biological target: T1, Rb^P A490T
Rb^P H585Y = biological target: T2, Rb^P H585Y
Rb^P V654L = biological target: T3, Rb^P V654L
Rb^P D604G = biological target: T4, Rb^P D604G
Rb^P A488V = biological target: T5, Rb^P A488V

Row | Binder | Kd (Rb^P A490T) | Kd (Rb^P H585Y) | Kd (Rb^P V654L) | Kd (Rb^P D604G) | Kd (Rb^P A488V)
1 | {TMR}-GEGIRDLFDCDFGDLTPLD (also called E2F^TD; source: synthetic peptide, bought: GenScript) [TMR-E2F1^TD, peptide of the E2F1 transactivation domain] | 59 nM | 35 nM | 18 nM | 27 nM | 53 nM
2 | DLYCYEQLN (also: TMR label, position not given here, source: synthetic peptide, bought: GenScript) [TMR-E7^LxCxE, LxCxE peptide of the E7 oncoprotein from HPV] | 13 nM | 6 nM | 11 nM | 13 nM | 9 nM
